One block for each binder: values may come before it. No end group written: not given here. *: point of attachment. FITC = O=C1OC2(c3ccc(O)cc3Oc3cc(O)ccc32)c2ccc(NC(=S)*)cc21
Legend:
[1] = target: T1, HLA-A*02:01 MHC Class I complex (recombinant, biotinylated) (human, biotinylated (lysine of a C-terminal BirA recognition sequence)); assay: pMHC on streptavidin beads held in T cell culture media at 37 C for 0-48 h; APC W6/32 staining, flow cytometry MFI fitted to an exponential decay
T1 construct: Bought as a peptide-loaded complex (Biolegend or other maker); also called pHLA (when loaded with peptide)

[2] = target: T1, HLA-A*02:01 MHC Class I complex …; assay: loading into HLA-A*02:01 and catalysed peptide exchange test

half-life of the complex [1]: ~17 h
B1: SLYSYFQKV (SEQ ID NO: 5), SLC45A2-derived peptide (peptide)
peptide: SLYSYFQKV
notes: also called Immunogenic SLC45A2-derived peptide; SLC45A2 antigen peptide

half-life of the complex [1]: ~0.5 h
B2: SLLPIMWQLY (SEQ ID NO: 6), TCL1-derived peptide (peptide)
peptide: SLLPIMWQLY
notes: also called Non-Immunogenic TCL1-derived peptide

binding result [2]: binds
Binder: GAATK(FITC)MAAV [EP5 GAATKMAAV (SEQ ID NO: 13), FITC-labelled in-place peptide GAAT{Lys(FITC)}MAAV]

Source: patent US20240272171A1 (PHENOMEX, published 2024)
